The text below walks through data of patent US20180185504A1 (Regeneron, published 2018).

What all share (test): SPR Biacore, 25 C, mAb capture
Experiment [1] concerns the target T1, hPRLR.mmh (soluble monomeric human PRLR) (human).
T1 construct: called soluble monomeric PRLR protein
T1 chain: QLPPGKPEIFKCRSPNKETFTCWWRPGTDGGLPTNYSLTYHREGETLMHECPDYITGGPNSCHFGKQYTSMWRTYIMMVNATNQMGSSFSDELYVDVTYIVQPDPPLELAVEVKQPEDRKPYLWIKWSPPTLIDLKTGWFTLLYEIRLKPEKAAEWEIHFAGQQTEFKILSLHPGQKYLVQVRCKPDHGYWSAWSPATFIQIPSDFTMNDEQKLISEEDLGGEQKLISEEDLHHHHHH
On the procedure:
(§1) Measurements were conducted on a T200 Biacore instrument. Kinetic association (kₐ) and dissociation (kd) rate constants were determined by processing and fitting the data to a 1:1 binding model using Scrubber 2.0 curve fitting software.

The target in experiment [2] is T2, hPRLR.mFc (soluble dimeric human PRLR) (human).
T2 construct: dimeric PRLR construct
T2 chain: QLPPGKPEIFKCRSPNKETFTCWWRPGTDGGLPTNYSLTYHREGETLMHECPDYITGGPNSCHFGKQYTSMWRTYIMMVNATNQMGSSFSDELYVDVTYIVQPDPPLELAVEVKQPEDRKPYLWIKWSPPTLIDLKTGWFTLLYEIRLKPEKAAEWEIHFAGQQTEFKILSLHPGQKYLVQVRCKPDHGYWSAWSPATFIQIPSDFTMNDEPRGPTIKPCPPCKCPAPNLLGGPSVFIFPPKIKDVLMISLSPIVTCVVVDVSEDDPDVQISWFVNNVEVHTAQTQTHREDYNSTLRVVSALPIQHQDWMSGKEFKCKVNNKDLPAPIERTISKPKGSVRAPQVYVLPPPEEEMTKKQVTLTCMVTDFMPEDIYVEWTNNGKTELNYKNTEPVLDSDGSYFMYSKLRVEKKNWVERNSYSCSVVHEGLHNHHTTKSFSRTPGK
As for the experimental part:
as §1

The target in experiment [3] is T3, macaca fascicularis (mf) PRLR.mmh (soluble monomeric monkey PRLR) (Macaca fascicularis).
T3 construct: called soluble monomeric PRLR protein
T3 chain: T1 chain with I76V, A110T, I125M, I158T, T207I
On the procedure: as §1

Positions count from the first letter of the chain named. Names may count otherwise.

B1: H1H6783P (antibody, human IgG1, V domains shown)
VH: QVQLQQSGPGLVKPSQTLSLTCAISGDSVSSNTFAWNWIRQSPSRGLEWLGRTYYRSKWYIDYAESVKSRITITPDTSKNQFSLQLNSVTPEDTALYYCAGGYTYAPRGAFDIWGQGTMVTVSS
VL: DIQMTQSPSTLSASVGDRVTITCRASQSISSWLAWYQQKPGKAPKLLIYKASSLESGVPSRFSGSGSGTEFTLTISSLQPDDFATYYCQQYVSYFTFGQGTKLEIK
notes: Human IgG1 Fc (H1H)
What is called Kd is the free concentration of one partner at which half of the binding sites on the other are occupied at equilibrium, for simple one-to-one binding. The koff is the rate constant with which the complex falls apart. By kon is commonly meant a measure of how fast the partners come together. In the case of B1, in experiment [1], binding was characterised by a dissociation constant (Kd) of 1.43 nM, the T½ came out at 0.467 h, the koff came out at 0.000413 s⁻¹ and the on-rate constant (kon) was determined as 288000 M⁻¹ s⁻¹. In experiment [2], the Kd was found to be 0.332 nM, the T½ came to 2.2 h, the dissociation rate constant (koff) stood at 8.77e-05 s⁻¹ and the kon amounted to 264000 M⁻¹ s⁻¹. In experiment [3], this molecule registered a Kd of 1.81 nM, a T½ of 0.567 h, an off-rate (koff) of 0.000341 s⁻¹ and a kon of 189000 M⁻¹ s⁻¹.

B2: H1H6762P (antibody, human IgG1, V domains shown)
VH: QVQLVESGGGVVQPGRSLRLSCAASGFTFSHYGMVWVRQPPGKGLEWVALISFDGTTKYYADSVKGRFTISRDNSKNTLYLQMNSLRAEDTAVYFCVGAIAAAAFDLWGRGTLVTVSS
VL: EIVMTQSPATLSVSPGERATLSCRASQSVSSDLAWYQQKPGQAPRLLIYSASARATGIPARFTGSGSGTDFTLTISSLQSEDFAVYYCQQYNNWPMYTFGQGTKLEIK
notes: Human IgG1 Fc (H1H)
In experiment [1], B2 registered a dissociation constant Kd of 0.259 nM, a T½ of 1.07 h, a koff of 0.000179 s⁻¹ and a kon of 692000 M⁻¹ s⁻¹. Further, in experiment [2], the Kd was 0.0992 nM, the T½ turned out to be 2.98 h, the off-rate constant (koff) amounted to 6.45e-05 s⁻¹ and the on-rate (kon) came out at 651000 M⁻¹ s⁻¹. In experiment [3], this molecule showed a Kd of 0.511 nM, a T½ of 0.917 h, a dissociation rate constant (koff) of 0.000208 s⁻¹ and an on-rate (kon) of 408000 M⁻¹ s⁻¹.

B3: H1H6790P (antibody, human IgG1, V domains shown)
VH: EVQLVESGGGLVQPGGSLRLSCAASGFTFSSYAMTWVRQAPGKGLEWVSAITGSVGNTYYADSVKGRFTISRDNSKNTLYLQMNSLGAEDTAEYYCAKGAGMTTNWYLDLWGRGTLVTVSS
VL: DIVMTQSPDSLAVSLGARATINCKSSQSVLYSSNNQNYLTWYQQKPGQPPKLLIKWASTRESGVPDRFSGSGSGTDFTLTISSLQAEDVAVYYCQQYASSPYTFGQGTKLEIK
notes: Human IgG1 Fc (H1H)
In experiment [1], B3 yielded a Kd of 1.41 nM, a T½ of 0.233 h, a koff of 0.000799 s⁻¹ and a kon of 565000 M⁻¹ s⁻¹. In experiment [2], this molecule showed a Kd of 0.192 nM, a T½ of 1.85 h, a koff of 0.000104 s⁻¹ and an on-rate constant (kon) of 542000 M⁻¹ s⁻¹. In experiment [3], this molecule showed a Kd of 2.04 nM, a T½ of 0.25 h, a dissociation rate constant (koff) of 0.000793 s⁻¹ and a kon of 389000 M⁻¹ s⁻¹.

B4: H1H6782P (antibody, human IgG1, V domains shown)
VH: EVQLVESGGGLVQPGRSLRLSCAASGFTFDDYAMHWVRQAPGKGLEWVSGIIWNSGHIGYGDSVKGRFTISRDNAKKSLYLQMNSLRAEDTALYYCARDSGRYQSYFDYWGQGTLVTVSS
VL: DIQMTQSPSTLSASVGDRVTITCRASHIISSWLAWYQQKPGKAPKVLIFKASSLESGVPSRFSGSGSGTEFTLTISSLQPDDFATYYCQQYNTYSRTFGQGTKVEIK
notes: Human IgG1 Fc (H1H)
In experiment [1], B4 gave a Kd of 0.685 nM, a T½ of 0.783 h, a koff of 0.000247 s⁻¹ and an on-rate constant (kon) of 360000 M⁻¹ s⁻¹. In experiment [2], this molecule registered an equilibrium dissociation constant (Kd) of 0.225 nM, a T½ of 2.7 h, a koff of 7.13e-05 s⁻¹ and an on-rate (kon) of 317000 M⁻¹ s⁻¹. For the same molecule, in experiment [3], the equilibrium dissociation constant (Kd) was found to be 1.05 nM, the T½ turned out to be 0.683 h, the koff stood at 0.000279 s⁻¹ and the kon came out at 266000 M⁻¹ s⁻¹.

B5: H1H6774P (antibody, human IgG1, V domains shown)
VH: EVQLVESGGGLAQPGGSLRLSCVASGFTFSTYWMSWVRQAPGKGLDWVGNIKQDGSEQNYVDSVRGRFTISRDNAKNSLFLQMNSLRAEDTGVYYCATLLTKGDYWGQGTLVTVSS
VL: DIQMTQSPSSLSASVGDSVTITCRASQDISNYLDWFQQKPGKAPKSLIYAASILQGGVPSRFSGSGYGTDFTLTISSLQPEDFATYYCRQYKTYPFTFGPGTKVDIK
notes: Human IgG1 Fc (H1H)
With B5, in experiment [1], the dissociation constant Kd amounted to 1.14 nM, the T½ is 0.233 h, the koff came out at 0.000818 s⁻¹ and the on-rate (kon) was found to be 715000 M⁻¹ s⁻¹. In experiment [2], the Kd turned out to be 0.112 nM, the T½ came out at 2.15 h, the koff turned out to be 8.94e-05 s⁻¹ and the kon was determined as 798000 M⁻¹ s⁻¹. Moreover, in experiment [3], the dissociation constant (Kd) is 1.77 nM, the T½ was 0.217 h, the koff is 0.000875 s⁻¹ and the on-rate (kon) stood at 495000 M⁻¹ s⁻¹.

B6: H1H6792P (antibody, human IgG1, V domains shown)
VH: EVQLVESGGGLVQPGRSLRLSCAASGFTLDDHAVHWVRQAPGKGLEWVSGISWNSVYIDYADSVKGRFTIFRDNAKNSLYLQMNSLRAEDTAFYYCARDIEGARDYWGQGTLVTVSS
VL: DIQMTQSPSSLSASVGDRVTITCRASQGIRNDLGWYQQKPGKAPKRLIYAASSLQSGVPSRFSGSGYGTEFTLTISSLQPEDFAPYYCLQHNSYPLTFGGGTKVEIK
notes: Human IgG1 Fc (H1H)
Turning to B6, in experiment [1], the Kd turned out to be 2.45 nM, the T½ was determined as 0.25 h, the koff came to 0.000794 s⁻¹ and the kon was found to be 324000 M⁻¹ s⁻¹. In experiment [2], this molecule yielded an equilibrium dissociation constant (Kd) of 0.313 nM, a T½ of 2.03 h, an off-rate (koff) of 9.48e-05 s⁻¹ and a kon of 303000 M⁻¹ s⁻¹. Further, in experiment [3], the Kd came to 4.17 nM, the T½ was 0.2 h, the koff is 0.000983 s⁻¹ and the association rate constant (kon) came to 236000 M⁻¹ s⁻¹.

B7: H1H6765P (antibody, human IgG1, V domains shown)
VH: EVQLVESGGGVVRPGGSLRLSCVGSGFSFDDHGMNWVRQGPGKGLEWVSGFNWNGGSTNYAESVKGRFTISRDNARNSLFLQMNSLRAEDTALYYCVRGRSGWFNDAFDVWGPGTMVTVSS
VL: EIVLTQSPGTLSLSPGERATLSCRASQTINSNYLAWYRQKPGQTPRLLIYGTSSRATGIPDRFSGSGSGTDFSLTISRLEPEDFAVFYCQQYAGLPTFGPGTKVDIK
notes: Human IgG1 Fc (H1H)
Turning to B7, in experiment [1], binding was characterised by a dissociation constant (Kd) of 0.124 nM, the T½ was 1.7 h, the koff was found to be 0.000113 s⁻¹ and the kon came to 907000 M⁻¹ s⁻¹. In experiment [2], this molecule returned a Kd of 0.0392 nM, a T½ of 5.65 h, a dissociation rate constant (koff) of 3.41e-05 s⁻¹ and a kon of 869000 M⁻¹ s⁻¹. In experiment [3], this molecule came in with a Kd of 0.254 nM, a T½ of 1.43 h, an off-rate (koff) of 0.000134 s⁻¹ and a kon of 527000 M⁻¹ s⁻¹.

B8: H1H6781P (antibody, human IgG1, V domains shown)
VH: EVQLVESGGDLVQPGESLRLSCTASGFTFNSYEMNWVRQAPGKGLEWVSYISSSGGTKYYVDSVKGRFTISRDNAKKSLYLQMNSLRADDTALYYCARLNGVDVFDIWGQGTMVTVSS
VL: DIQMTQSPSSLSASVGDRVTITCRASQDIFNYLAWFQQKPGKVPELLISAASTLQSGVPSRFSGSGSGTYFTLTISSLQPEDIATYYCQRYNSAPLTFGGGTKVEIK
notes: Human IgG1 Fc (H1H)
In experiment [1], B8 registered a Kd of 0.61 nM, a T½ of 1.52 h, a koff of 0.000127 s⁻¹ and an on-rate constant (kon) of 208000 M⁻¹ s⁻¹. In experiment [2], this molecule yielded a Kd of 0.236 nM, a T½ of 3.18 h, an off-rate (koff) of 6.05e-05 s⁻¹ and an on-rate constant (kon) of 257000 M⁻¹ s⁻¹. In experiment [3], the Kd amounted to 0.986 nM, the T½ came out at 1.37 h, the off-rate constant (koff) was determined as 0.000141 s⁻¹ and the on-rate (kon) is 143000 M⁻¹ s⁻¹.

B9: H1H6785P (antibody, human IgG1, V domains shown)
VH: EVQLVESGGGLVQPGGSLRLSCAASGFTFSSYEMNWVRQAPGKGLEWISYISSRGGTIYYADSIKGRFTIYRDNARNSLYLQMNSLRAEDTAIYYCARLSGVDIFDIWGQGTMVTVSS
VL: B8 VL with D28G, F30S, F36Y, E45K, S49Y, A50F, S65G, Y70D, I83V
notes: Human IgG1 Fc (H1H)
In experiment [1], B9 showed an equilibrium dissociation constant (Kd) of 0.567 nM, a T½ of 1.13 h, a koff of 0.000171 s⁻¹ and a kon of 301000 M⁻¹ s⁻¹. Besides, in experiment [2], the affinity, expressed as Kd, was 0.231 nM; the T½ came to 3.17 h; the off-rate (koff) was 6.07e-05 s⁻¹; the kon came out at 263000 M⁻¹ s⁻¹. In experiment [3], this molecule yielded a dissociation constant Kd of 0.738 nM, a T½ of 1.15 h, a koff of 0.000167 s⁻¹ and an on-rate (kon) of 227000 M⁻¹ s⁻¹.
